The labels stand for the following.
B1: glmS ribozyme (parent)
chain: AUAAAAGCGCCAGAACUACAGAAAUGUAGUUGACGAGGAGGAGGUUUAUCGAAUUUUCGGCGGAUGCCUCCAAA

Holding throughout (details): with glucosamine-6-phosphate
Variants of B1 are the subject of series [1]. The experiment in a line: self-cleavage kobs at 40 uM GlcN6P; higher = faster cleavage; RNA array. The method, boiled down:
(§1)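 Barcoded ribozyme variants, transcribed in situ by E. coli RNA polymerase on sequenced MiSeq chips, were followed via a hybridised Cy3 probe at 37 °C. Glucosamine-6-phosphate ranged from 40 μM to 10 mM in HEPES/KCl/Mg(OAc)2 buffer. kobs came from decay fits to per-tile medians, and kcat and KM from weighted Michaelis–Menten fits.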

Variants of B1 are the subject of series [2]. As to the kind of experiment: self-cleavage kobs at 640 uM GlcN6P; higher = faster cleavage; RNA array. The method, boiled down:
as §1

Variants of B1 are the subject of series [3]. The experiment in a line: self-cleavage kobs at 2500 uM GlcN6P; higher = faster cleavage; RNA array. The method, boiled down:
as §1

Series [4] covers variants of B1. As to the kind of experiment: self-cleavage kobs at 10000 uM GlcN6P; higher = faster cleavage; RNA array. The method, boiled down: as §1
Series [5] covers variants of B1. As to the kind of experiment: self-cleavage kobs at 160 uM GlcN6P; higher = faster cleavage; RNA array. The method, boiled down:
as §1

± gives the standard error. This sample holds only a part of the variants without activity.

Consider A33G G41C U47C, for which the “self-cleavage kobs at 40 uM GlcN6P” value with glucosamine-6-phosphate [1] was less than 1e-05 s⁻¹. Moreover, the “self-cleavage kobs at 640 uM GlcN6P” value in the series with glucosamine-6-phosphate [2] is less than 1e-05 s⁻¹. Further, the “self-cleavage kobs at 2500 uM GlcN6P” value in the series with glucosamine-6-phosphate [3] is less than 1e-05 s⁻¹.

Take A33G A36G G51U: in the series with glucosamine-6-phosphate [1], the “self-cleavage kobs at 40 uM GlcN6P” value was less than 1e-05 s⁻¹. The “self-cleavage kobs at 10000 uM GlcN6P” value in the series with glucosamine-6-phosphate [4] was less than 1e-05 s⁻¹.

Take U54A C61A G66U: the “self-cleavage kobs at 40 uM GlcN6P” value with glucosamine-6-phosphate [1] is less than 1e-05 s⁻¹.

In the case of U47C U57G, the “self-cleavage kobs at 40 uM GlcN6P” value with glucosamine-6-phosphate [1] was less than 1e-05 s⁻¹.

Regarding C10A U45G G63U, in the series with glucosamine-6-phosphate [1], the “self-cleavage kobs at 40 uM GlcN6P” value is less than 1e-05 s⁻¹. Moreover, in the series with glucosamine-6-phosphate [4], the “self-cleavage kobs at 10000 uM GlcN6P” value was less than 1e-05 s⁻¹.

As for A42C U46G, the “self-cleavage kobs at 40 uM GlcN6P” value with glucosamine-6-phosphate [1] is less than 1e-05 s⁻¹. Besides, the “self-cleavage kobs at 160 uM GlcN6P” value with glucosamine-6-phosphate [5] is less than 1e-05 s⁻¹.

As for C50G A64G C71A, the “self-cleavage kobs at 40 uM GlcN6P” value in the series with glucosamine-6-phosphate [1] came out at 8.51e-05 ± 2.3e-05 s⁻¹. Also, the “self-cleavage kobs at 10000 uM GlcN6P” value in the series with glucosamine-6-phosphate [4] is 9.96e-05 ± 2.1e-05 s⁻¹.

For the variant C10G G44A, in the series with glucosamine-6-phosphate [1], the “self-cleavage kobs at 40 uM GlcN6P” value is less than 1e-05 s⁻¹. The “self-cleavage kobs at 160 uM GlcN6P” value with glucosamine-6-phosphate [5] was less than 1e-05 s⁻¹. Further, in the series with glucosamine-6-phosphate [2], the “self-cleavage kobs at 640 uM GlcN6P” value is less than 1e-05 s⁻¹. In addition, in the series with glucosamine-6-phosphate [4], the “self-cleavage kobs at 10000 uM GlcN6P” value was less than 1e-05 s⁻¹.

Take A52G U56C: the “self-cleavage kobs at 40 uM GlcN6P” value with glucosamine-6-phosphate [1] was less than 1e-05 s⁻¹. Besides, the “self-cleavage kobs at 640 uM GlcN6P” value in the series with glucosamine-6-phosphate [2] was 4.15e-05 ± 1.2e-05 s⁻¹. Besides, in the series with glucosamine-6-phosphate [3], the “self-cleavage kobs at 2500 uM GlcN6P” value amounted to 7.09e-05 ± 1.3e-05 s⁻¹. The “self-cleavage kobs at 10000 uM GlcN6P” value with glucosamine-6-phosphate [4] was 0.000259 ± 4.9e-05 s⁻¹.

In the case of A5U A6C A12G G32A G51U, the “self-cleavage kobs at 40 uM GlcN6P” value with glucosamine-6-phosphate [1] is less than 1e-05 s⁻¹. Further, the “self-cleavage kobs at 10000 uM GlcN6P” value with glucosamine-6-phosphate [4] was less than 1e-05 s⁻¹.

As for G51U A64G, in the series with glucosamine-6-phosphate [1], the “self-cleavage kobs at 40 uM GlcN6P” value is less than 1e-05 s⁻¹. In addition, in the series with glucosamine-6-phosphate [5], the “self-cleavage kobs at 160 uM GlcN6P” value was less than 1e-05 s⁻¹. Moreover, the “self-cleavage kobs at 2500 uM GlcN6P” value in the series with glucosamine-6-phosphate [3] was less than 1e-05 s⁻¹.

With G13A A15U G37C, in the series with glucosamine-6-phosphate [1], the “self-cleavage kobs at 40 uM GlcN6P” value was less than 1e-05 s⁻¹.

In the case of A6G G35C, the “self-cleavage kobs at 40 uM GlcN6P” value with glucosamine-6-phosphate [1] was less than 1e-05 s⁻¹. In the series with glucosamine-6-phosphate [5], the “self-cleavage kobs at 160 uM GlcN6P” value was less than 1e-05 s⁻¹. Also, the “self-cleavage kobs at 640 uM GlcN6P” value in the series with glucosamine-6-phosphate [2] was less than 1e-05 s⁻¹. In the series with glucosamine-6-phosphate [3], the “self-cleavage kobs at 2500 uM GlcN6P” value is less than 1e-05 s⁻¹. In addition, in the series with glucosamine-6-phosphate [4], the “self-cleavage kobs at 10000 uM GlcN6P” value is less than 1e-05 s⁻¹.

Turning to C10U G40U, the “self-cleavage kobs at 40 uM GlcN6P” value with glucosamine-6-phosphate [1] was less than 1e-05 s⁻¹. Further, in the series with glucosamine-6-phosphate [4], the “self-cleavage kobs at 10000 uM GlcN6P” value is less than 1e-05 s⁻¹.

Regarding C8G A33C C67G, in the series with glucosamine-6-phosphate [1], the “self-cleavage kobs at 40 uM GlcN6P” value is less than 1e-05 s⁻¹. Further, in the series with glucosamine-6-phosphate [2], the “self-cleavage kobs at 640 uM GlcN6P” value was less than 1e-05 s⁻¹.

Turning to G41A G63U, the “self-cleavage kobs at 40 uM GlcN6P” value in the series with glucosamine-6-phosphate [1] is less than 1e-05 s⁻¹. In addition, in the series with glucosamine-6-phosphate [5], the “self-cleavage kobs at 160 uM GlcN6P” value is less than 1e-05 s⁻¹. Moreover, the “self-cleavage kobs at 640 uM GlcN6P” value with glucosamine-6-phosphate [2] was less than 1e-05 s⁻¹. Besides, the “self-cleavage kobs at 2500 uM GlcN6P” value in the series with glucosamine-6-phosphate [3] was less than 1e-05 s⁻¹. Besides, the “self-cleavage kobs at 10000 uM GlcN6P” value with glucosamine-6-phosphate [4] was less than 1e-05 s⁻¹.

For G35U G37U G63U U65C, the “self-cleavage kobs at 40 uM GlcN6P” value with glucosamine-6-phosphate [1] is less than 1e-05 s⁻¹.

For G21C G29A, in the series with glucosamine-6-phosphate [1], the “self-cleavage kobs at 40 uM GlcN6P” value amounted to 6.68e-05 ± 2.4e-05 s⁻¹. The “self-cleavage kobs at 10000 uM GlcN6P” value with glucosamine-6-phosphate [4] was 0.00366 ± 0.00094 s⁻¹.

For A14U G63U, in the series with glucosamine-6-phosphate [1], the “self-cleavage kobs at 40 uM GlcN6P” value is less than 1e-05 s⁻¹. Also, in the series with glucosamine-6-phosphate [5], the “self-cleavage kobs at 160 uM GlcN6P” value is less than 1e-05 s⁻¹. Also, in the series with glucosamine-6-phosphate [2], the “self-cleavage kobs at 640 uM GlcN6P” value is less than 1e-05 s⁻¹. Also, the “self-cleavage kobs at 2500 uM GlcN6P” value in the series with glucosamine-6-phosphate [3] was less than 1e-05 s⁻¹.

Regarding G9C A52U, the “self-cleavage kobs at 40 uM GlcN6P” value in the series with glucosamine-6-phosphate [1] is less than 1e-05 s⁻¹. In addition, the “self-cleavage kobs at 160 uM GlcN6P” value with glucosamine-6-phosphate [5] was less than 1e-05 s⁻¹. Further, the “self-cleavage kobs at 640 uM GlcN6P” value in the series with glucosamine-6-phosphate [2] is less than 1e-05 s⁻¹. Also, the “self-cleavage kobs at 2500 uM GlcN6P” value with glucosamine-6-phosphate [3] was less than 1e-05 s⁻¹. Besides, the “self-cleavage kobs at 10000 uM GlcN6P” value with glucosamine-6-phosphate [4] is less than 1e-05 s⁻¹.

With A12G A53C U55G, in the series with glucosamine-6-phosphate [1], the “self-cleavage kobs at 40 uM GlcN6P” value was less than 1e-05 s⁻¹. Also, in the series with glucosamine-6-phosphate [4], the “self-cleavage kobs at 10000 uM GlcN6P” value is 0.000115 ± 1.8e-05 s⁻¹.

For U55A C71A, the “self-cleavage kobs at 40 uM GlcN6P” value in the series with glucosamine-6-phosphate [1] is 0.000472 ± 6.9e-05 s⁻¹. Further, in the series with glucosamine-6-phosphate [5], the “self-cleavage kobs at 160 uM GlcN6P” value is 0.000925 ± 0.00023 s⁻¹. In the series with glucosamine-6-phosphate [2], the “self-cleavage kobs at 640 uM GlcN6P” value worked out at 0.00299 ± 0.00056 s⁻¹. In addition, the “self-cleavage kobs at 10000 uM GlcN6P” value in the series with glucosamine-6-phosphate [4] amounted to 0.0132 ± 0.0032 s⁻¹.

For the variant A6U A48C C50U A52U C61U C67G C68G, the “self-cleavage kobs at 40 uM GlcN6P” value with glucosamine-6-phosphate [1] was less than 1e-05 s⁻¹.

Consider C11U A14G G40U A42C, for which, in the series with glucosamine-6-phosphate [1], the “self-cleavage kobs at 40 uM GlcN6P” value was less than 1e-05 s⁻¹. Further, the “self-cleavage kobs at 10000 uM GlcN6P” value with glucosamine-6-phosphate [4] was less than 1e-05 s⁻¹.

For A6C G32C U47A, the “self-cleavage kobs at 40 uM GlcN6P” value with glucosamine-6-phosphate [1] is less than 1e-05 s⁻¹. Further, the “self-cleavage kobs at 640 uM GlcN6P” value with glucosamine-6-phosphate [2] is less than 1e-05 s⁻¹. In addition, in the series with glucosamine-6-phosphate [3], the “self-cleavage kobs at 2500 uM GlcN6P” value was less than 1e-05 s⁻¹.
